{
  "source": "patent US20250250318A1",
  "about": "(US Dept. of Health and Human Services, published 2025)",
  "binders": {"B1": {"name": "KRAS^G12V-HLA-DRB1*07:01 TCR of Example 2 (cysteine substituted, LVL-modified murine constant region) (TCR, V domains shown)", "V domain 1": "GENVEQHPSTLSVQEGDSAVIKCTYSDSASNYFPWYKQELGKGPQLIIDIRSNVGEKKDQRIAVTLNKTAKHFSLHITETQPEDSAVYFCAASTGGGNKLTFGTGTQLKVEL", "V domain 2": "LLLGPAGSGLGAVVSQHPSRVICKSGTSVKIECRSLDFQATTMFWYRQFPKQSLMLMATSNEGSKATYEQGVEKDKFLINHASLTLSTLTVTSAHPEDSSFYICSAREGAGGMGTQYFGPGTRLLVLE"}},
  "experiment_in_all_cases": "cell-based or functional assay",
  "key": {"[1]": {"biological_target": "WT KRAS peptide (SEQ ID NO: 55) pulsed on APCs from a donor with a DRB1 07:01 haplotype (human, UniProt P01903 26-254)", "sequence (peptide, as listed by the source, chain 1 of 3, other chains not shown)": "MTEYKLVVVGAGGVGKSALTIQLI"}, "[2]": {"biological_target": "KRAS^G12V peptide (SEQ ID NO: 53) pulsed on APCs from the HLA-DRB1 mismatch donor (human)", "sequence (Q05147 1-24, stated change not applied)": "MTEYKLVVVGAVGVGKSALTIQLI"}, "[3]": {"biological_target": "WT KRAS peptide (SEQ ID NO: 55) pulsed on APCs from a donor with a DRB1 01:01 haplotype (human, UniProt P01903 26-254)"}, "[4]": {"biological_target": "WT KRAS peptide (SEQ ID NO: 55) pulsed on APCs from the HLA-DRB1 mismatch donor (human)"}, "[5]": {"biological_target": "WT KRAS peptide (SEQ ID NO: 55) pulsed on autologous APCs/DCs of the patient of Example 1 (Patient 4148) (human, UniProt P01903 26-254)", "sequence (P01903 26-254, chain 2 of 2)": "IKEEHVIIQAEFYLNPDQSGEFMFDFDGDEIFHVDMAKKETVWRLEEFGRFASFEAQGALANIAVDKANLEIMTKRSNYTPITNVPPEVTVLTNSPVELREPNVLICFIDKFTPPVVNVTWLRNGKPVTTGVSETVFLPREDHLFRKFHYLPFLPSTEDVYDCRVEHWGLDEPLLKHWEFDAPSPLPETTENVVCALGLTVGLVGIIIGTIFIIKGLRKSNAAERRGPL"}},
  "data": [
    {"binder": "B1", "values": [
      {"measurement": "IFN-γ secretion measured by ELISPOT", "setting": "[1]", "result": "~291", "unit": "ELISPOT count"},
      {"measurement": "IFN-γ secretion measured by ELISPOT", "setting": "[2]", "result": 41, "unit": "ELISPOT count"},
      {"measurement": "IFN-γ secretion measured by ELISPOT", "setting": "[3]", "result": 2, "unit": "ELISPOT count"},
      {"measurement": "IFN-γ secretion measured by ELISPOT", "setting": "[4]", "result": 58, "unit": "ELISPOT count"},
      {"measurement": "IFN-γ secretion measured by ELISPOT", "setting": "[5]", "result": "~354", "unit": "ELISPOT count"}
    ]}
  ]
}
